Laboratory results taken from the supplement of paper PMC10065799, “High-throughput profiling of sequence recognition by tyrosine kinases and SH2 domains using bacterial peptide display” (eLife, 2023).

Legend:
c-Src SH2 = assay: SH2 binding enrichment of the phosphorylated peptide, bacterial display (enrichment ratio); higher = better substrate or ligand; peptides without Tyr show the background
SHP2-C SH2 = assay: as above
Grb2 SH2 = Grb2 SH2 (UniProt P62993); assay: as above
Hck = Hck (UniProt P08631); assay: phosphorylation enrichment, bacterial display (enrichment ratio); higher = better substrate or ligand; peptides without Tyr show the background
EPHB1 = EPHB1 (UniProt P54762); assay: as above
c-Src = assay: as above
Fes = Fes (UniProt P07332); assay: as above
Fer (mouse) = assay: as above
FGFR3 = FGFR3 (UniProt P22607); assay: as above
MERTK = MERTK (UniProt Q12866); assay: as above
AncSZ = assay: as above
Jak2 = Jak2 (UniProt O60674); assay: as above
c-Abl (mouse) = assay: as above
Fyn = Fyn (UniProt P06241); assay: as above
EPHB2 = EPHB2 (UniProt P29323); assay: as above
FGFR1 = FGFR1 (UniProt P11362); assay: as above
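Throughout, for SH2 binding enrichment of the phosphorylated peptide, bacterial display: peptide library displayed on the E. coli surface as eCPX fusions, selected cells deep-sequenced, score is each peptide's frequency after selection divided by its frequency in the input.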
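Throughout, for phosphorylation enrichment, bacterial display: 11-residue human phosphosite peptides and single-mutation variants displayed on the E. coli surface, counted by deep sequencing, each peptide's frequency after selection divided by its frequency in the unselected input library; frequency after pTyr selection over input frequency; kinase dosed for 20-30% of maximal phosphorylation in three min.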

Sequence of Jak2 (O60674 whole entry, looked up): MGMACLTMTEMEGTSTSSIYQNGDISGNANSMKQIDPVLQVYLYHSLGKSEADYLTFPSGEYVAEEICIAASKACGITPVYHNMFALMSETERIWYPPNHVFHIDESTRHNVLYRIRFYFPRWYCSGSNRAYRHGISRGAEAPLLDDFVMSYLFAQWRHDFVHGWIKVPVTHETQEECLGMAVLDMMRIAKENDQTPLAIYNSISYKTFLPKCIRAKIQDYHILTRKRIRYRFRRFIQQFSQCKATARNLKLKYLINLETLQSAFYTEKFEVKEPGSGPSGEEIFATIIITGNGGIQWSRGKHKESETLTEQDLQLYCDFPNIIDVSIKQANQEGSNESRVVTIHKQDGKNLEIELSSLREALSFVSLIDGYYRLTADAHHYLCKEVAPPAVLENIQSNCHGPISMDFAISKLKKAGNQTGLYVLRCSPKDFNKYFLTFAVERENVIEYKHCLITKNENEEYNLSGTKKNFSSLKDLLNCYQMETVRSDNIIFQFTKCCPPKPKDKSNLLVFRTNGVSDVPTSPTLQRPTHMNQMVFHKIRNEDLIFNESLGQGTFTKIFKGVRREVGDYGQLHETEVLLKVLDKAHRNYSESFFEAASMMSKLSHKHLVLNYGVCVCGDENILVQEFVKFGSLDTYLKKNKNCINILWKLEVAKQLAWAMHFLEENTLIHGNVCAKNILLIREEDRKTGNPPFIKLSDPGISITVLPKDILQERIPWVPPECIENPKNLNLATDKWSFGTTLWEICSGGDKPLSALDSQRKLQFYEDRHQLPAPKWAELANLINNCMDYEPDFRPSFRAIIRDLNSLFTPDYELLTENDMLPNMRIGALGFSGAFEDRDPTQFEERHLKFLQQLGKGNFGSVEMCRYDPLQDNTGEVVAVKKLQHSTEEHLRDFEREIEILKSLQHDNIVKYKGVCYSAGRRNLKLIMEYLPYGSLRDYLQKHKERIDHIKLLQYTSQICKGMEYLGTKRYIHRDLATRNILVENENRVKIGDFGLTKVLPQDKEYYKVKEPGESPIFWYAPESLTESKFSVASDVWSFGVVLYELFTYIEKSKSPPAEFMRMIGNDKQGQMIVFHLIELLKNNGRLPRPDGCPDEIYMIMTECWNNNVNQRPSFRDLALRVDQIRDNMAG
Sequence of Hck (P08631 whole entry, looked up): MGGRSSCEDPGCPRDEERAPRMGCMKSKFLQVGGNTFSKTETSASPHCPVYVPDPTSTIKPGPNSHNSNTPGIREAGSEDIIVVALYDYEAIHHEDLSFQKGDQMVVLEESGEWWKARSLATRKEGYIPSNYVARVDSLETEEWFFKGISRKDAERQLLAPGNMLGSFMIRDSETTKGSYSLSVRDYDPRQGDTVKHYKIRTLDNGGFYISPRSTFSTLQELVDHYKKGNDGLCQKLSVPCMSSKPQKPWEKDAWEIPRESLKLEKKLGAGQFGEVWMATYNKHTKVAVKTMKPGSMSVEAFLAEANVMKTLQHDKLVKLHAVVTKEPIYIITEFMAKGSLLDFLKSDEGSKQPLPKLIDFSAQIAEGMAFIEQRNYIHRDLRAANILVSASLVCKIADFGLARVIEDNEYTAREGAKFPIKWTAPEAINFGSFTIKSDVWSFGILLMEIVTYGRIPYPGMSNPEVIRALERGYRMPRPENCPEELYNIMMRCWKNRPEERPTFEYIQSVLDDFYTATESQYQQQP
Sequence of FGFR1 (P11362 whole entry, looked up, the tested form may be a part): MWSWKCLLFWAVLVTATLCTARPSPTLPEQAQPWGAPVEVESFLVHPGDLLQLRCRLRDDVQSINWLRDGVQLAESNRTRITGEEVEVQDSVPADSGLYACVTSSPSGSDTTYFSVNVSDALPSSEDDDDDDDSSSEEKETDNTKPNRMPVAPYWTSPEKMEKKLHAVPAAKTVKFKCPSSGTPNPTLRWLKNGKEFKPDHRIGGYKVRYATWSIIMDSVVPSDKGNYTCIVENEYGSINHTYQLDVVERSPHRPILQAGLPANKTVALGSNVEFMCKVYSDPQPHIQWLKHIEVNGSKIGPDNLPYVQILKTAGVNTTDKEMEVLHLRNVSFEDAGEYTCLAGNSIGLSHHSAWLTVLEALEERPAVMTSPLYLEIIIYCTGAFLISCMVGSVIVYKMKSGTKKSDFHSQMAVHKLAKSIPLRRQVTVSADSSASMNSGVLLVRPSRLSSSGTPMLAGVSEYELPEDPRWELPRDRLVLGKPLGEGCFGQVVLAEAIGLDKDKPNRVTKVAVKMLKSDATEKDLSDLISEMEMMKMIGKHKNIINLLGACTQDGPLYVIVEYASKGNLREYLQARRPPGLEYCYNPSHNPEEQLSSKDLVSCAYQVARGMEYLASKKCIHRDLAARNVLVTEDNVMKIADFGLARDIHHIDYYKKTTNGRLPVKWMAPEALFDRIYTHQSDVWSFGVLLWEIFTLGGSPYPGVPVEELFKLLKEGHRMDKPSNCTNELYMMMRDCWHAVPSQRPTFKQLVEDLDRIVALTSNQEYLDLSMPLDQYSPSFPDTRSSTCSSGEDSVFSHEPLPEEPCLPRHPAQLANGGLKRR
Sequence of FGFR3 (P22607 whole entry, looked up): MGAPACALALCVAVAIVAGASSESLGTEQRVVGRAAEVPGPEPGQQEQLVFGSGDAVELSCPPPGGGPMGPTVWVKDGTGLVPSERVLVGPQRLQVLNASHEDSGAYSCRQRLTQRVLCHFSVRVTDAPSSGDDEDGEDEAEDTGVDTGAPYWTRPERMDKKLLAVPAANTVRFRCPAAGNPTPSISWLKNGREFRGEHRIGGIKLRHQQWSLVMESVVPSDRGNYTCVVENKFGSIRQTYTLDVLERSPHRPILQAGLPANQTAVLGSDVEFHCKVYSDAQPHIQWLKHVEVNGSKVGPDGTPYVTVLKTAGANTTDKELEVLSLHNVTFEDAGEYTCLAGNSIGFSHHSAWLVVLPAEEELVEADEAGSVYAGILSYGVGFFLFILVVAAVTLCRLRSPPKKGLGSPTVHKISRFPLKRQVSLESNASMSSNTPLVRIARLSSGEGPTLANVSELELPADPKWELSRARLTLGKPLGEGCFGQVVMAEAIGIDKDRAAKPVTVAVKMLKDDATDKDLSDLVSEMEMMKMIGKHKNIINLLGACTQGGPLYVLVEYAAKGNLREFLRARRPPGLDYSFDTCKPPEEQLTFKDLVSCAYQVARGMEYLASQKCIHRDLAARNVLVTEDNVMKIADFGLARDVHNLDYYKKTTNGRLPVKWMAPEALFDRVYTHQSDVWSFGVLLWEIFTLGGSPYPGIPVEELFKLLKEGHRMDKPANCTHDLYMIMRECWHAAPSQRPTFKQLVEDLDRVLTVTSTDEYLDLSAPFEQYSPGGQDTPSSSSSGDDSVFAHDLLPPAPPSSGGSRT
Sequence of EPHB1 (P54762 whole entry, looked up): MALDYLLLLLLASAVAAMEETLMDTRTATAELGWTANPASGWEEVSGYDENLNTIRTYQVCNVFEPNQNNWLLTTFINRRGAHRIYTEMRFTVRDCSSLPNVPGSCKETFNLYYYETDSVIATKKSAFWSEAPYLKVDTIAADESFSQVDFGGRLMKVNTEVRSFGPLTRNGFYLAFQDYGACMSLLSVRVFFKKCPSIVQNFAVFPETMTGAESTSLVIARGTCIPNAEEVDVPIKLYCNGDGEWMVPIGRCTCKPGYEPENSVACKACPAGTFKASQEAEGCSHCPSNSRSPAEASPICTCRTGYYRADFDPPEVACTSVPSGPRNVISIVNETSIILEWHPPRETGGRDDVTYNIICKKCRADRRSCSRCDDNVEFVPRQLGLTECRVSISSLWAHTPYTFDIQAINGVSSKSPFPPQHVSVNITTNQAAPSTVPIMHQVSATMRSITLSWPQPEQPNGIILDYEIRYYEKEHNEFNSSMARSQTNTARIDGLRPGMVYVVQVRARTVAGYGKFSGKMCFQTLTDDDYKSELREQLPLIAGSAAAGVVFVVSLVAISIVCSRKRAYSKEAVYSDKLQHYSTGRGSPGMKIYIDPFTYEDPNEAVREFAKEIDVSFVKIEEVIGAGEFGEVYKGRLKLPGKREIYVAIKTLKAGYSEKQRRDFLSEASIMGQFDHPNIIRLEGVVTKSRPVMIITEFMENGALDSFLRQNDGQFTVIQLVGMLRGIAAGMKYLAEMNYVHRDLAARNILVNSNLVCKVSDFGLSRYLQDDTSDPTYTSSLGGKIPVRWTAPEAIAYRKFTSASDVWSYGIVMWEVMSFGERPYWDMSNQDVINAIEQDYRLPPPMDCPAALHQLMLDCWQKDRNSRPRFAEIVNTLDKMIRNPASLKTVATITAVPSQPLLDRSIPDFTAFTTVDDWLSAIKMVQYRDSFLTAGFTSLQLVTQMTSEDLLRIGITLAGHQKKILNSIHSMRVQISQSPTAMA
Sequence of Fes (P07332 whole entry, looked up): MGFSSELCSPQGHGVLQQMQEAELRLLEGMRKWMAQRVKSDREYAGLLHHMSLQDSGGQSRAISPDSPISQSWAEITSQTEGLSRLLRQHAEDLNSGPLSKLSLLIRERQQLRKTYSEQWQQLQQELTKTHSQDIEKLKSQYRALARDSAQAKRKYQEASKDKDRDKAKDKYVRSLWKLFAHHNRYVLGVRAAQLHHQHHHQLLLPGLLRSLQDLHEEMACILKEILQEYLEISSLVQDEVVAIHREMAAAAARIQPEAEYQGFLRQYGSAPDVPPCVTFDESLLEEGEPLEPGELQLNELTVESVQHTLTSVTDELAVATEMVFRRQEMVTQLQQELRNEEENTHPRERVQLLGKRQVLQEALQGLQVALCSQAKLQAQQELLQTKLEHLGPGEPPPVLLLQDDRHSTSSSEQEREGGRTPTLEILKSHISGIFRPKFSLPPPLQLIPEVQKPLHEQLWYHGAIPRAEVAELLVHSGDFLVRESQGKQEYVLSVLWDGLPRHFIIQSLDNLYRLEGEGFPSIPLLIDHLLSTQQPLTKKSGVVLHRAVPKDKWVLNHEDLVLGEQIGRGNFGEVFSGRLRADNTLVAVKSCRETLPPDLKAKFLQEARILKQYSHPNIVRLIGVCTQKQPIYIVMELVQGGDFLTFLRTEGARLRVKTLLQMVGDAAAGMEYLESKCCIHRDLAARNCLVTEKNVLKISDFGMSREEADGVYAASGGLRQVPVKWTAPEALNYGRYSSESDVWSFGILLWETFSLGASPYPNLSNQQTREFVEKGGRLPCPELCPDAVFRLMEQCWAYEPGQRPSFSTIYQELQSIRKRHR

Row | Sequence | SH2 binding enrichment (c-Src SH2) | SH2 binding enrichment (SHP2-C SH2) | SH2 binding enrichment (Grb2 SH2) | phosphorylation enrichment (Hck) | phosphorylation enrichment (EPHB1) | phosphorylation enrichment (c-Src) | phosphorylation enrichment (Fes) | phosphorylation enrichment (Fer (mouse)) | phosphorylation enrichment (FGFR3) | phosphorylation enrichment (MERTK) | phosphorylation enrichment (AncSZ) | phosphorylation enrichment (Jak2) | phosphorylation enrichment (c-Abl (mouse)) | phosphorylation enrichment (Fyn) | phosphorylation enrichment (EPHB2) | phosphorylation enrichment (FGFR1)
1 | ADYYDYGHGLS [KHDRBS3_Y304] | 0.601 | 0.634 | 1.04 | 6.46 | 17.9 | 4.65 | 1.11 | 1.95 | 16.8 | 4.16 | 3.92 | 5.75 | 0.986 | 6.6 | 20.5 | 18.5
2 | LDPDSYNKFEN [FOXC1_Y159_M161K] | 0.409 | 0.838 | 0.681 | 0.698 | 0.758 | 1.02 | 1.69 | 0.483 | 0.97 | 0.802 | 1.54 | 1.52 | 1.25 | 0.665 | 0.656 | 0.765
3 | ESKKHYGYSLY [ANXA3_Y295_F291S] | 0.913 | 0.963 | 0.704 | 0.646 | 0.413 | 0.541 | 0.593 | 0.453 | 0.474 | 0.486 | 0.595 | 0.551 | 0.435 | 0.454 | 0.455 | 0.408
4 | RKTAKYLLKGE [CDH5_Y82_N79T] | 0.461 | 0.709 | 0.861 | 0.672 | 0.915 | 0.535 | 0.644 | 0.878 | 0.704 | 0.832 | 0.71 | 0.628 | 1.1 | 0.598 | 0.54 | 1.04
5 | LRAGVYPEKDQ [DNM2_Y626] | 0.509 | 0.779 | 0.611 | 0.662 | 0.443 | 0.507 | 0.971 | 0.39 | 0.633 | 0.43 | 0.754 | 0.773 | 0.803 | 0.454 | 0.498 | 0.467
6 | LSIQCYLRALD [HMGCS2_Y262] | 0.454 | 0.49 | 0.708 | 1.12 | 1.25 | 1.01 | 2.81 | 0.822 | 1.91 | 0.802 | 2.06 | 2.35 | 1.98 | 0.825 | 1.31 | 0.672

Now from value to sequence, other results behind:

Row | SH2 binding enrichment (c-Src SH2) | SH2 binding enrichment (SHP2-C SH2) | SH2 binding enrichment (Grb2 SH2) | Sequence | phosphorylation enrichment (Hck) | phosphorylation enrichment (EPHB1) | phosphorylation enrichment (c-Src) | phosphorylation enrichment (Fes) | phosphorylation enrichment (Fer (mouse)) | phosphorylation enrichment (FGFR3) | phosphorylation enrichment (MERTK) | phosphorylation enrichment (AncSZ) | phosphorylation enrichment (Jak2) | phosphorylation enrichment (c-Abl (mouse)) | phosphorylation enrichment (Fyn) | phosphorylation enrichment (EPHB2) | phosphorylation enrichment (FGFR1)
7 | 0.557 | 0.676 | 0.847 | PNRILYRDFRQ [MYH7_Y715_G716R] | 0.452 | 0.544 | 0.485 | 0.778 | 0.373 | 0.573 | 0.574 | 0.633 | 0.79 | 0.74 | 0.307 | 0.615 | 0.472
8 | 0.944 | 0.873 | 1.17 | RVILRYVNPGN [LAMA3_Y791_T796N] | 0.775 | 0.836 | 0.75 | 2.02 | 0.609 | 1.12 | 0.709 | 1.47 | 1.79 | 1.61 | 0.617 | 0.711 | 0.614
9 | 0.584 | 0.622 | 1.07 | RMETEYGPSVT [MXRA5_Y2717] | 0.752 | 0.779 | 0.787 | 1.01 | 0.408 | 0.718 | 0.54 | 0.937 | 0.985 | 0.92 | 0.823 | 0.929 | 0.91
